The target of test [1] is T1, human PSMA antigen (R&D SYSTEM, 4234-ZN-010) (human, UniProt Q04609 44-750).
T1 construct: bought antigen
Briefly: ELISA, plate-bound PSMA antigen. As to the method: To test the ability of the PSMA-targeting humanized antibodies of the present disclosure to bind to PSMA antigen, the ELISA method was used in this test example to measure the binding of the PSMA-targeting humanized antibodies to human PSMA antigen (purchased from R&D SYSTEM, 4234-ZN-010). The specific steps are as follows: A 96-well plate was coated with PSMA antigen at 1 μg/well and placed at 4° C. overnight. After the supernatant was discarded, the plate was blocked with 5% skim milk for 2 h. Different concentrations of humanized antibodies were prepared using 1% BSA. The initial concentration was 10 μg/mL and was serially diluted 4-fold to obtain 12 concentrations. After the blocked 96-well plate was washed twice, the […] was added, and the plate was incubated at 4° C. for 1 h. After four washes, the plate was incubated with Strepidation-HRP secondary antibody (1:10,000) at 4° C. for 1 h. After color development with TMB, the reaction was stopped with 0.1 M sulfuric acid.
A general note: ELISA stands for enzyme-linked immunosorbent assay.

In test [2] the target is T2, human PSMA on cells (Cho-hPSMA, CHO-K1 cells overexpressing full-length human PSMA) (human, UniProt Q04609 1-750).
T2 construct: whole, on cells; also called cell surface PSMA; PSMA-expressing Lncap cells
T2 sequence (Q04609 whole entry): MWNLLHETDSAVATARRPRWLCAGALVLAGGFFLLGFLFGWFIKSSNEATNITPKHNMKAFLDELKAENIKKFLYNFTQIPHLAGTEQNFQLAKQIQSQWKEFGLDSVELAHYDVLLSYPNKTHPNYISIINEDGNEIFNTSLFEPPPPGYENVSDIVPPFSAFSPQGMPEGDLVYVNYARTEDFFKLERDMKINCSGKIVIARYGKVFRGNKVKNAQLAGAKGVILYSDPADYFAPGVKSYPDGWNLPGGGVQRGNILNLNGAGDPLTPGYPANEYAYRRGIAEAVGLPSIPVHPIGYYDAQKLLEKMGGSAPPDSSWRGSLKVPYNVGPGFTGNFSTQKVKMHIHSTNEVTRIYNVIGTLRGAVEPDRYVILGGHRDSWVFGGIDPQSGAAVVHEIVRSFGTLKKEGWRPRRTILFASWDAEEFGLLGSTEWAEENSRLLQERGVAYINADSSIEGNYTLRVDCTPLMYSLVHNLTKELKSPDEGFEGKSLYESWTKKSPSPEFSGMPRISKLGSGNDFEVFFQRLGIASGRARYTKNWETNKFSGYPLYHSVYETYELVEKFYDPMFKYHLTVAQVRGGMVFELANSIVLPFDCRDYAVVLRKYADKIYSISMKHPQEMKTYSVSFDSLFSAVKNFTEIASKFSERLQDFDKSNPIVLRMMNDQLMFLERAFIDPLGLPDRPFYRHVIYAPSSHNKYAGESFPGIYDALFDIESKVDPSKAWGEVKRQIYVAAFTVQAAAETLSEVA
As to the kind of experiment: flow cytometry, Cho-hPSMA cells. As to the method: The binding activity of antibodies to the stably transfected cell strain Cho-hPSMA, which overexpresses human PSMA, was measured by flow cytometry in this test example. The full-length gene encoding human PSMA was cloned into the mammalian cell expression vector pCDH. HEK293T cells (ATCC® CRL-11268) were co-transfected with three plasmids-pVSV-G, pCMV-dR8.91, and pCDH-human PSMA- to package viruses. After 48 h of transfection, viruses were collected to infect CHO-K1 cells.
Experiment 1: Cho-hPSMA was cultured in F12 medium with 10% FBS. The medium to which cells were inoculated was incubated in a 37° C., 5% CO₂ incubator for 2 days, and cells were added to a cell plate at 1×10⁵ cells/well and washed by centrifugation. Antibodies were serially diluted, and the antibody solutions were added to the cell plate at 100 μL/well. The plate was incubated at 4° C. for 1 h and then washed. An AF488-Goat Anti-human IgG Fc fluorescent secondary antibody dilution (1:400) was added to the cell plate at 100 μL/well, and the plate was incubated at 4° C. for 1 h and then washed. PBS was added to the cell plate at 100 μL/well before plate reading.
A general note: A flow cytometer gives signals particle by particle.

For test [3], the target named is T2, human PSMA on cells (Cho-hPSMA, CHO-K1 …). As to the kind of experiment: cell-based or functional assay.
The next test deals with hPDL1 (human, UniProt Q9NZQ7 19-238). As to the kind of experiment: ELISA.
Chain of hPDL1 (Q9NZQ7 19-238 limits assumed): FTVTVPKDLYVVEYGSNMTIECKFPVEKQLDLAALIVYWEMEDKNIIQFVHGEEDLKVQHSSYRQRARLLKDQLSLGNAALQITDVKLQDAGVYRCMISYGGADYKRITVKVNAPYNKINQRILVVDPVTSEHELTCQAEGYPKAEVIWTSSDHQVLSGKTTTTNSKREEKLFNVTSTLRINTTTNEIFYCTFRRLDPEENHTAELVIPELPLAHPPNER
The target in another test is hCTLA4 (human, UniProt P16410 36-161). Briefly: ELISA.
Chain of hCTLA4 (P16410 36-161 limits assumed): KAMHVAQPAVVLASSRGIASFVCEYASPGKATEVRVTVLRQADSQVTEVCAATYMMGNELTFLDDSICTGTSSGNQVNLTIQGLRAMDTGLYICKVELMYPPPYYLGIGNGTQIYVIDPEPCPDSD

A word on the EC50: it is the midpoint of the concentration-response curve. Lower therefore signals a more potent agent.

Positions count from the first letter of the chain named.

T1 sequence (Q04609 44-750 limits assumed): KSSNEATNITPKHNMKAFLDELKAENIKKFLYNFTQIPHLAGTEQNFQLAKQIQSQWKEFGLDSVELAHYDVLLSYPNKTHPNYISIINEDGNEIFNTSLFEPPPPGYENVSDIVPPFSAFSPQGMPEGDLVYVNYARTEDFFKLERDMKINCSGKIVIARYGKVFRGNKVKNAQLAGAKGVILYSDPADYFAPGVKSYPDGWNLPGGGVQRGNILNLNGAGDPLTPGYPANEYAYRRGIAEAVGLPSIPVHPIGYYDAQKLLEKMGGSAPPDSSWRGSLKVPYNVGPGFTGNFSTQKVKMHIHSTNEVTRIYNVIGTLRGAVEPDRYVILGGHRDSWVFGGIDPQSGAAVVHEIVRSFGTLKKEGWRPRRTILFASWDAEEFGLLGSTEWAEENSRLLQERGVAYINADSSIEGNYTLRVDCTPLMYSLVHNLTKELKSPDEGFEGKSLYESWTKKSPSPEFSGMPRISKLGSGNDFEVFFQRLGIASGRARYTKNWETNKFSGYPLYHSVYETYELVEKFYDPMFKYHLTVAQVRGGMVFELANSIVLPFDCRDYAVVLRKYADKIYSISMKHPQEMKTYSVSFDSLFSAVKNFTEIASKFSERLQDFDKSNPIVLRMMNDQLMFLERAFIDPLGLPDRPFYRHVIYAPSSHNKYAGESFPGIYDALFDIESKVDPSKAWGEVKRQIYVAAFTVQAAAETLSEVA

B1: Chi13 (antibody, human IgG1, kappa, V domains shown)
VH: QVQLKESGPGLVAPSQSLSITCTVSGFSLTNYAISWVRQPPGKGLEWLGVIWTGGGTHYNSALKSRLSISKDNSKSQVFLKMNSLQTDDTARYYCARKGNYYGSSLYYYAMNYWGQGTSVTVSS
VL: DIQMTQTTSSLSASLGDRVTISCRASQDISNYLNWYQQKPDGTVKLLIYYTSRLQSGVPSRFSGSGSGTDYSLSISNLEQEDIATYFCQQGDTLPYTFGGGTKLEIRT
notes: chimeric antibody, hIgG1/kappa
With B1, the EC50 in test [1] is 0.0409 µg/mL; in test [2], 1.21 µg/mL. Also, the “Top (maximum absorbance)” value in test [1] turned out to be 2.11 absorbance.

B2: hu13H2L2 (antibody, human IgG1, kappa, V domains shown)
VH: EVTLKESGPVLVKPTETLTLTCTVSGFSLSNYAISWIRQPPGKALEWLGVIWTGGGTHYNSALKSRLTISKDTSKSQVVLTMTNMDPVDTARYYCARKGNYYGSSLYYYAMNYWGQGTTVTVSS
VL: DIQMTQSPSSLSASVGDRVTITCRASQDISNYLNWYQQKPDGAPKLLIYYTSRLQSGVPSRFSGSGSGTDYTLTISSLQPEDFATYYCQQGDTLPYTFGGGTKVEIKR
In test [2], B2 had an EC50 of 1.09 µg/mL.

B3: hu13H3L1 (antibody, human IgG1, kappa, V domains shown)
VH: B2 VH with S30T, A44G, T73N
VL: B2 VL with D41G, G42K, Y71F
B3: the EC50 in test [2] was found to be 1.05 µg/mL.

B4: hu13H2L3 (antibody, human IgG1, kappa, V domains shown)
VH: B2 VH
VL: B2 VL with A43T, P44V
B4 registered an EC50 in test [2] of 1.14 µg/mL.

B5: hu13H1L2 (antibody, human IgG1, kappa, V domains shown)
VH: B2 VH with G49A, R92T
VL: B2 VL
Molecule B5 returned an EC50 in test [2] of 0.981 µg/mL.

B6: hu13H1L3 (antibody, human IgG1, kappa, V domains shown)
VH: B2 VH with G49A, R92T
VL: B2 VL with A43T, P44V
With B6, a half-maximal response in test [2] (EC50) required 1.01 µg/mL.

B7: hu13H1L1 (antibody, human IgG1, kappa, V domains shown)
VH: B2 VH with G49A, R92T
VL: B2 VL with D41G, G42K, Y71F
B7: the midpoint of the response in test [2], the EC50, lay at 0.947 µg/mL.

B8: hu13H2L1 (antibody, human IgG1, kappa, V domains shown)
VH: B2 VH
VL: B2 VL with D41G, G42K, Y71F
In test [2], B8 showed an EC50 of 1.05 µg/mL.

B9: hu13H3L3 (antibody, human IgG1, kappa, V domains shown)
VH: B2 VH with S30T, A44G, T73N
VL: B2 VL with A43T, P44V
As for B9, the EC50 in test [2] turned out to be 1.5 µg/mL.

B10: hu13H3L2 (antibody, human IgG1, kappa, V domains shown)
VH: B2 VH with S30T, A44G, T73N
VL: B2 VL
Take B10: the concentration giving a half-maximal response (EC50) in test [2] turned out to be 1.1 µg/mL. The EC50 values of the last two molecules are within 1.5-fold of each other.

B11: 2-F2 (bispecific antibody)
heavy 1: not shown
light 1: EIVLTQSPDFQSVTPKEKVTITCSASSSVSHMYWYQQKPDQSPKLLIYRTSNLASGVPSRFSGSGSGTDFTLTINSLEAEDAATYYCQQYHSYPLMFGQGTKLEIKRTVAAPSVFIFPPSDEQLKSGTASVVCLLNNFYPREAKVQWKVDNALQSGNSQESVTEQDSKDSTYSLSSTLTLSKADYEKHKVYACEVTHQGLSSPVTKSFNRGEC
heavy 2: not shown
light 2: not shown
Turning to B11, in test [3], the “cytotoxic activity against Lncap, EC50 (LDH release, PBMC E:T 10:1, 48 h)” value came out at 0.0084 nM and the “cytotoxic activity against Lncap, Maximum lysis rate %” value was found to be 48.7%.

B12: PL-12 (bispecific antibody)
chain 1: not shown
chain 2: DIVLTQSPASLAVSPGQRATITCRASESVSIHGTHLMHWYQQKPGQPPKLLIYAASKLESGVPARFSGSGSGTDFTLTINPVEAEDTANYYCQQSFEDPLTFGQGTKLEIKRTVASGIPPKIECLPIDISIDEGKCLTVASAFTGEPTPEVTWSTGGRKIHSQEQGRFHIENTDDSTTLTIKDVQKQDGGLYTLTLRNEFGSDSATVNIHIRSI
chain 3: not shown
chain 4: not shown
With B12, the figures for the EC50 in the test with hPDL1 and in the test with hCTLA4 were 0.5 nM and 8 nM, respectively.

B13: PL-7 (bispecific antibody)
chain 1: not shown
chain 2: B12 chain 2 with R112G, T113G, V114G, A115G, C136V, A142C
chain 3: not shown
chain 4: not shown
As to B13, the EC50 in the test with hPDL1 is 0.5 nM; with hCTLA4 it was 7.3 nM.

B14: PL-10 (bispecific antibody)
chain 1: not shown
chain 2: B12 chain 2 with R112G, T113G, V114G, A115G, C136V, A142C
chain 3: not shown
chain 4: not shown
For B14, the values for the EC50 with hPDL1 and with hCTLA4 were 0.6 nM and 6.9 nM, respectively.

B15: PL-5 (bispecific antibody)
chain 1: not shown
chain 2: B12 chain 2 with R112G, T113G, V114G, A115G, C136V
chain 3: not shown
chain 4: not shown
In the case of B15, the EC50 was 0.7 nM in the test with hPDL1 and 6.7 nM in the test with hCTLA4.

B16: PL-8 (bispecific antibody)
chain 1: not shown
chain 2: B12 chain 2 with R112G, T113G, V114G, A115G, C136V
chain 3: not shown
chain 4: not shown
Take B16: the EC50 in the test with hPDL1 came to 1.4 nM; with hCTLA4, 14.5 nM.

B17: PL-4 (bispecific antibody)
chain 1: not shown
chain 2: B12 chain 2 with R112G, T113G, V114G, A115G, C136V, A142C
chain 3: not shown
chain 4: not shown
For the molecule B17, the EC50 with hPDL1 turned out to be 0.7 nM; with hCTLA4, 6.5 nM.

B18: PL-2 (bispecific antibody)
chain 1: not shown
chain 2: B12 chain 2 with R112G, T113G, V114G, A115G, C136V
chain 3: not shown
chain 4: not shown
For the molecule B18, the EC50 in the test with hPDL1 was determined as 0.5 nM; with hCTLA4, 8 nM.

B19: PL-1 (bispecific antibody)
chain 1: not shown
chain 2: B12 chain 2 with R112G, T113G, V114G, A115G, C136V, S176L, T180I
chain 3: not shown
chain 4: not shown
For the molecule B19, the EC50 in the test with hPDL1 came out at 1.6 nM; with hCTLA4, 16.5 nM.

B20: PL-14 (bispecific antibody)
chain 1: not shown
chain 2: B12 chain 2 with C136V
chain 3: not shown
chain 4: not shown
Regarding B20, the EC50 with hPDL1 amounted to 1.3 nM; in the test with hCTLA4 it was 6 nM.

B21: PL-19 (bispecific antibody)
chain 1: not shown
chain 2: B12 chain 2 with C136V, A142C
chain 3: not shown
chain 4: not shown
Consider B21, for which the EC50 was determined as 1.6 nM with hPDL1 and 6.5 nM with hCTLA4.

B22: PL-6 (bispecific antibody)
chain 1: not shown
chain 2: B12 chain 2 with R112G, T113G, V114G, A115G
chain 3: not shown
chain 4: not shown
As for B22, the 50% effective concentration (EC50) with hPDL1 was 0.8 nM; in the test with hCTLA4, 5.3 nM.

B23: PL-3 (bispecific antibody)
chain 1: not shown
chain 2: B12 chain 2 with R112G, T113G, V114G, A115G
chain 3: not shown
chain 4: not shown
B23: the EC50 with hPDL1 worked out at 0.6 nM; with hCTLA4, 7.9 nM.

B24: PL-9 (bispecific antibody)
chain 1: not shown
chain 2: B12 chain 2 with R112G, T113G, V114G, A115G
chain 3: not shown
chain 4: not shown
For B24, the EC50 with hPDL1 was found to be 0.6 nM; in the test with hCTLA4, 5.5 nM.

B25: PL-18 (bispecific antibody)
chain 1: not shown
chain 2: B12 chain 2
chain 3: not shown
chain 4: not shown
Take B25: the EC50 with hPDL1 worked out at 1.6 nM; with hCTLA4 it was 6.7 nM.

B26: PL-13 (bispecific antibody)
chain 1: not shown
chain 2: B12 chain 2 with C136V, A142C
chain 3: not shown
chain 4: not shown
As to B26, the half-maximal effective concentration (EC50) with hPDL1 came to 0.5 nM; with hCTLA4, 4.4 nM.

B27: PL-11 (bispecific antibody)
chain 1: not shown
chain 2: B12 chain 2 with C136V
chain 3: not shown
chain 4: not shown
For the molecule B27, the EC50 with hPDL1 was found to be 0.6 nM; with hCTLA4, 5.6 nM.

B28: PL-15 (bispecific antibody)
chain 1: not shown
chain 2: B12 chain 2
chain 3: not shown
chain 4: not shown
For the molecule B28, the EC50 with hPDL1 was determined as 1.4 nM; with hCTLA4, 3.2 nM.

B29: PL-17 (bispecific antibody)
chain 1: not shown
chain 2: B12 chain 2 with C136V
chain 3: not shown
chain 4: not shown
In the case of B29, the EC50 in the test with hPDL1 came out at 1.4 nM; in the test with hCTLA4, 6.2 nM.

The values above are taken from US20250043022A1 (JIANGSU HENGRUI PHARMACEUTICALS, published 2025).
